Measurements from patent US20090311283A1.
Where two headings read alike, the source gives them in different places.

Assays:
HLA-A*3301 (human) [1] = biological target: HLA-A*3301 (human)
HLA-A*1101 (human) [2] = biological target: HLA-A*1101 (human)
HLA-A*6801 (human) [3] = test: competition with 125I-labelled probe peptide for purified HLA-A*6801, gel filtration; ratio to standard peptide 941.12
HLA-A*3101 (human) [4] = test: competition with 125I-labelled probe peptide for purified HLA-A*3101, gel filtration; ratio to standard peptide 941.12
HLA-A*3101 (human) [5] = test: competitive inhibition of 125I-labelled probe peptide binding to purified HLA; relative to standard peptide
HLA-A*0301 (human) [6] = test: as above
HLA-A*3301 (human) [7] = test: as above
HLA-A*1101 (human) [8] = test: as above
HLA-A*0301 (human) [9] = test: competition with 125I-labelled probe peptide for purified HLA, gel filtration; conditions: remark: other sources report otherwise
HLA-A*3301 (human) [10] = test: as above; conditions: remark: other sources report otherwise
HLA-A*6801 (human) [11] = test: as above; conditions: remark: other sources report otherwise
HLA-A*1101 (human) [12] = test: as above; conditions: remark: other sources report otherwise
HLA-A*0301 (human) [13] = test: competition with 125I-labelled probe peptide for purified HLA-A*0301, gel filtration; relative binding against the standard peptide; conditions: remark: other sources report otherwise; scale: ratio
HLA-A*0301 (human) [14] = test: competition with 125I probe peptide on purified HLA-A*0301; relative to standard peptide 941.12; conditions: remark: other sources report otherwise
HLA-A*3101 (human) [15] = test: competition with 125I probe peptide on purified HLA-A*3101; relative to standard peptide 941.12; conditions: remark: other sources report otherwise
HLA-A*6801 (human) [16] = test: competition with 125I probe peptide on purified HLA-A*6801; relative to standard peptide 941.12; conditions: remark: other sources report otherwise
HLA-B*5401 (Human) = test: competition with 125I-labelled probe peptide for purified HLA, gel filtration
HLA-B*3501 (Human) = test: as above
HLA-B*5101 (Human) = test: as above
HLA-A*3101 (Human) [17] = conditions: remark: other sources report otherwise
HLA-B*0702 (Human) = test: competition with 125I-labelled probe peptide for purified HLA, gel filtration
[18] = remark: other sources report otherwise

PLTVNEKRR (modifications not checked) [HBV POL 98 peptide …]
binding affinity ratio (IC50 of standard peptide / IC50 of test peptide) (HLA-A*3301 (human) [1]): 0.0027
binding affinity ratio (IC50 of standard peptide / IC50 of test peptide) (HLA-A*1101 (human) [2]): 0.0005
binding affinity ratio (IC50 of standard peptide / IC50 of test peptide) (HLA-A*6801 (human) [3]): 0.0002

PLEEELPR (modifications not checked) [HBV POL 20 peptide PLEEELPR]
binding affinity ratio (IC50 of standard peptide / IC50 of test peptide) (HLA-A*3101 (human) [4]): -0.0009
binding affinity ratio (IC50 of standard peptide / IC50 of test peptide) (HLA-A*3301 (human) [1]): -0.0009
binding affinity ratio (IC50 of standard peptide / IC50 of test peptide) (HLA-A*1101 (human) [2]): -0.0002
binding affinity ratio (IC50 of standard peptide / IC50 of test peptide) (HLA-A*6801 (human) [3]): 0.0001

PLTVNEKR (modifications not checked) [HBV POL 98 peptide PLTVNEKR]
binding affinity ratio (IC50 of standard peptide / IC50 of test peptide) (HLA-A*3101 (human) [4]): -0.0009
binding affinity ratio (IC50 of standard peptide / IC50 of test peptide) (HLA-A*3301 (human) [1]): -0.0009
binding affinity ratio (IC50 of standard peptide / IC50 of test peptide) (HLA-A*1101 (human) [2]): -0.0002
binding affinity ratio (IC50 of standard peptide / IC50 of test peptide) (HLA-A*6801 (human) [3]): 0.0001

PLSYQHFR (modifications not checked) [HBV POL 2 peptide PLSYQHFR]
binding affinity ratio (IC50 of standard peptide / IC50 of test peptide) (HLA-A*3101 (human) [4]): -0.0009
binding affinity ratio (IC50 of standard peptide / IC50 of test peptide) (HLA-A*3301 (human) [1]): -0.0009
binding affinity ratio (IC50 of standard peptide / IC50 of test peptide) (HLA-A*6801 (human) [3]): 0.0001

PLSYQHFRK (modifications not checked) [HBV POL 2 peptide …]
binding affinity ratio (IC50 of standard peptide / IC50 of test peptide) (HLA-A*3101 (human) [4]): 0.0006
binding affinity ratio (IC50 of standard peptide / IC50 of test peptide) (HLA-A*1101 (human) [2]): 0.0031
binding affinity ratio (IC50 of standard peptide / IC50 of test peptide) (HLA-A*6801 (human) [3]): 0.0002

NLEDPASR (modifications not checked) [HBV NUC 75 peptide NLEDPASR]
binding affinity ratio (IC50 of standard peptide / IC50 of test peptide) (HLA-A*3101 (human) [5]): -0.0009
binding affinity ratio (IC50 of standard peptide / IC50 of test peptide) (HLA-A*0301 (human) [6]): -0.0002
binding affinity ratio (IC50 of standard peptide / IC50 of test peptide) (HLA-A*3301 (human) [7]): -0.0009
binding affinity ratio (IC50 of standard peptide / IC50 of test peptide) (HLA-A*1101 (human) [8]): -0.0002

WLWGMDIDPYK (modifications not checked) [… (HBV NUC 26)]
binding affinity ratio (IC50 of standard peptide / IC50 of test peptide) (HLA-A*0301 (human) [9]): 0.003
binding affinity ratio (IC50 of standard peptide / IC50 of test peptide) (HLA-A*3301 (human) [10]): 0.0039
binding affinity ratio (IC50 of standard peptide / IC50 of test peptide) (HLA-A*6801 (human) [11]): 0.049
binding affinity ratio (IC50 of standard peptide / IC50 of test peptide) (HLA-A*1101 (human) [12]): 0.0013

TAELLAACFAR (modifications not checked) [HBV POL 716 peptide …]
binding affinity ratio (relative to standard peptide) (HLA-A*0301 (human) [13]): 0.0006
binding affinity ratio (IC50 standard peptide / IC50 test peptide) (HLA-A*0301 (human) [14]): 0.0006
binding affinity ratio (IC50 standard peptide / IC50 test peptide) (HLA-A*3301 (human) [1]; [18]): 0.16
binding affinity ratio (IC50 standard peptide / IC50 test peptide) (HLA-A*1101 (human) [2]; [18]): 0.0023
binding affinity ratio (IC50 standard peptide / IC50 test peptide) (HLA-A*3101 (human) [15]): 0.0066
binding affinity ratio (IC50 standard peptide / IC50 test peptide) (HLA-A*6801 (human) [16]): 0.059

SPEHCSPHHTA (modifications not checked) [HBV NUC 44 peptide …]
binding affinity ratio (IC50 of standard peptide / IC50 of test peptide) (HLA-B*5401 (Human)): 0.0011
binding affinity ratio (IC50 of standard peptide / IC50 of test peptide) (HLA-B*3501 (Human)): 0.0001
binding affinity ratio (IC50 of standard peptide / IC50 of test peptide) (HLA-B*5101 (Human)): 0.0001

TTVVRRRGR (modifications not checked) [HBV NUC 175 peptide …]
binding affinity ratio (relative to standard peptide) (HLA-A*0301 (human) [13]): 0.0008

KVFVLGGCR (modifications not checked) [Peptide 1.0993 (HBV X 130, …)]
IC50 (HLA-A*3101 (Human) [17]): 30 nM

GIHLNPNKTK (modifications not checked) [HBV POL 567 peptide …]
binding affinity ratio (IC50 of standard peptide / IC50 of test peptide) (HLA-A*3101 (human) [5]): 0.0009
binding affinity ratio (IC50 of standard peptide / IC50 of test peptide) (HLA-A*0301 (human) [6]): 0.0025
binding affinity ratio (IC50 of standard peptide / IC50 of test peptide) (HLA-A*3301 (human) [7]): 0.0009
binding affinity ratio (IC50 of standard peptide / IC50 of test peptide) (HLA-A*1101 (human) [8]): 0.0011

PPAYRPPNAPI (modifications not checked) [HBV NUC 129 peptide …]
binding affinity ratio (IC50 of standard peptide / IC50 of test peptide) (HLA-B*5401 (Human)): 0.0001
binding affinity ratio (IC50 of standard peptide / IC50 of test peptide) (HLA-B*3501 (Human)): 0.0001
binding affinity ratio (IC50 of standard peptide / IC50 of test peptide) (HLA-B*0702 (Human)): 0.0003
binding affinity ratio (IC50 of standard peptide / IC50 of test peptide) (HLA-B*5101 (Human)): 0.0001

SSAGPCALR (modifications not checked) [Peptide 26.0153 (HBV X 64, …)]
IC50 (HLA-A*3101 (Human) [17]): 55 nM
